In publication PMC9613979, “Endothelial alpha globin is a nitrite reductase” (Nature Communications, 2022) one finds Kd data, which are given here for one molecule.

In this experiment the target is T1, recombinant eNOS oxygenase domain.
T1 chain: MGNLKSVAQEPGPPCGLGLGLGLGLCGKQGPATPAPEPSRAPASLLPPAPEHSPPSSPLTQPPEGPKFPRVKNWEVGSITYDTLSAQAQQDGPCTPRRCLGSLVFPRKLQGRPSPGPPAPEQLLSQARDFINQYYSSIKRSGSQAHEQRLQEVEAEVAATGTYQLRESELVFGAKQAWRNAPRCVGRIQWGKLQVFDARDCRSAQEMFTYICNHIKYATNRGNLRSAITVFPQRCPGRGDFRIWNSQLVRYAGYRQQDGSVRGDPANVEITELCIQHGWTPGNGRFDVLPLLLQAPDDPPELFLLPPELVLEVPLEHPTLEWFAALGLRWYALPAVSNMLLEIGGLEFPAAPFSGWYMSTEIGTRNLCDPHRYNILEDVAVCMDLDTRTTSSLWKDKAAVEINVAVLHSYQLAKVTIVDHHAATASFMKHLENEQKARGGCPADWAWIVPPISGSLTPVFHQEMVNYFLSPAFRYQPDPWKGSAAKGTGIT
In words: fluorescence polarisation; 1 μM recombinant oxygenase domain of eNOS incubated with peptide labelled with Alexa Fluor 488 at the C-terminus; SpectraMax M5 plate reader; triplicate measurements per concentration. As to conditions: both partners purified. For orientation: In fluorescence polarisation assays a small probe gives low polarisation when free and higher when bound to something large.

No end group written: not given here. Alexa Fluor 488 = Alexa Fluor 488 fluorescent dye tag

One may read the Kd as the equilibrium constant for the complex coming apart. Regarding LSFPTTKTYF-{Alexa Fluor 488} (source: synthetic peptide (AnaSpec)) [alpha globin mimetic peptide (alpha globin binding sequence LSFPTTKTYF)], the Kd came out at 16.8 nM.
